{"source": "paper PMC9555707", "molecular_target": "SmT1v3-R, tagless resistin-trimerized SARS-CoV-2 spike ectodomain, reference strain (SARS-CoV-2 | human) (UniProt P0DTC2)", "test": "SEC-MALS; UPLC-SEC on a 4.6 x 300 mm Acquity BEH450 column in PBS + 0.02% Tween-20, coupled to a miniDAWN MALS detector and Optilab T-rEX refractometer; trimer and hexamer populations by molecular weight", "note": "“And” between values parts separate entries of the source, which are not always exact repeats. Equal values may be shown once.", "data": [{"substance": "SmT1v3-R, tagless resistin-trimerized SARS-CoV-2 spike ectodomain, reference strain (from UniProt P0DTC2 14-1208; Q9HD89-1 23-108)", "values": [{"measurement": "percent of the protein as hexamer", "result": 3, "unit": "%"}, {"measurement": "percent of the protein as trimer", "result": 96, "unit": "%"}, {"measurement": "stoichiometry N", "result": "3 and 6"}]}]}
